In publication PMC7500927:
Positions count from the first letter of the chain named.

T1: TrxA-His6-TbRAP1(639-761) (Trypanosoma brucei, UniProt C1JEX5 639-761)
T1 sequence: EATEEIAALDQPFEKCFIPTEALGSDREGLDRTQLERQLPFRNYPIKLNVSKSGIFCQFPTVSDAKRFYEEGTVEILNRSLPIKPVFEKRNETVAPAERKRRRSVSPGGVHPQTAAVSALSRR

T2: TrxA-His6-TbRAP1(639-733) (Trypanosoma brucei, UniProt C1JEX5 639-733)
T2 sequence: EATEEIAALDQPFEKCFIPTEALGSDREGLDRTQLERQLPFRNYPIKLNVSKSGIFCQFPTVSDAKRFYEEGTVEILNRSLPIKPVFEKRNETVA

T3: TrxA-His6-TbRAP1(639-761) 5A (Trypanosoma brucei, UniProt C1JEX5 639-761, R737A;K738A;R739A;R740A;R741A)
T3 sequence: T1 sequence with R99A, K100A, R101A, R102A, R103A

T4: TbRAP1(639-761) 5A, tag removed (Trypanosoma brucei, UniProt C1JEX5 639-761, R737A;K738A;R739A;R740A;R741A)
T4 sequence: T1 sequence with R99A, K100A, R101A, R102A, R103A

T5: TbRAP1(639-761), tag removed (Trypanosoma brucei, UniProt C1JEX5 639-761)
T5 sequence: T1 sequence

T6: TrxA-His6-TbRAP1(639-761) 2SA (Trypanosoma brucei, UniProt C1JEX5 639-761, S742A;S744A)
T6 sequence: T1 sequence with S104A, S106A

B1: dsDNA 100 bp random (dsDNA)
DNA 1: GAATTCCAAAGAAGCCATGCGCCGTGCAGAGCAGGAAAAAGCCACACGGGAACTCCTCCTGCAACAAACTTCAGCACCACATGCATCATCAGTTACATCCGGGATCC
DNA 2: GGATCCCGGATGTAACTGATGATGCATGTGGTGCTGAAGTTTGTTGCAGGAGGAGTTCCCGTGTGGCTTTTTCCTGCTCTGCACGGCGCATGGCTTCTTTGGAATTC
B2: dsDNA 80 bp random (dsDNA)
DNA 1: CGTGCAGAGCAGGAAAAAGCCACACGGGAACTCCTCCTGCAACAAACTTCAGCACCACATGCATCATCAGTTACATCCGG
DNA 2: CCGGATGTAACTGATGATGCATGTGGTGCTGAAGTTTGTTGCAGGAGGAGTTCCCGTGTGGCTTTTTCCTGCTCTGCACG
B3: random dsDNA 18 bp (NMR) (dsDNA)
DNA 1: TGTTGAGGAGGTGGTGAT
DNA 2: ATCACCACCTCCTCAACA
B4: ssDNA 100 nt random (ssDNA)
DNA: AATTCCAAAGAAGCCATGCGCCGTGCAGAGCAGGAAAAAGCCACACGGGAACTCCTCCTGCAACAAACTTCAGCACCACATGCATCATCAGTTACATCCG
B5: dsDNA 150 bp random (dsDNA)
DNA 1: GTACCGGGCCCCCCCTCGAGGTCGACGGTATCGATAAGCTTGATATCGAATTCAATTCCAAAGAAGCCATGCGCCGTGCAGAGCAGGAAAAAGCCACACGGGAACTCCTCCTGCAACAAACTTCAGCACCACATGCATCATCAGTTACATCCGGGATC
DNA 2: GATCCCGGATGTAACTGATGATGCATGTGGTGCTGAAGTTTGTTGCAGGAGGAGTTCCCGTGTGGCTTTTTCCTGCTCTGCACGGCGCATGGCTTCTTTGGAATTGAATTCGATATCAAGCTTATCGATACCGTCGACCTCGAGGGGGGGCCCGGTAC
B6: dsDNA 200 bp random (dsDNA)
DNA 1: CGCGCGTAATACGACTCACTATAGGGCGAATTGGGTACCGGGCCCCCCCTCGAGGTCGACGGTATCGATAAGCTTGATATCGAATTCCAAAGAAGCCATGCGCCGTGCAGAGCAGGAAAAAGCCACACGGGAACTCCTCCTGCAACAAACTTCAGCACCACATGCATCATCAGTTACATCCGGATCCACTAGTTCTAG
DNA 2: CTAGAACTAGTGGATCCGGATGTAACTGATGATGCATGTGGTGCTGAAGTTTGTTGCAGGAGGAGTTCCCGTGTGGCTTTTTCCTGCTCTGCACGGCGCATGGCTTCTTTGGAATTCGATATCAAGCTTATCGATACCGTCGACCTCGAGGGGGGGCCCGGTACCCAATTCGCCCTATAGTGAGTCGTATTACGCGCG

Key:
[1] = biological target: T1, TrxA-His6-TbRAP1(639-761); assay: EMSA
[2] = biological target: T2, TrxA-His6-TbRAP1(639-733); assay: EMSA
[3] = biological target: T3, TrxA-His6-TbRAP1(639-761) 5A; assay: EMSA
[4] = biological target: T4, TbRAP1(639-761) 5A, tag removed; assay: NMR HSQC
[5] = biological target: T5, TbRAP1(639-761), tag removed; assay: NMR HSQC
[6] = biological target: T6, TrxA-His6-TbRAP1(639-761) 2SA; assay: EMSA
[7] = biological target: T1, TrxA-His6-TbRAP1(639-761); assay: EMSA; remark: listed apart in the source
[8] = biological target: T1, TrxA-His6-TbRAP1(639-761); assay: competition

Binder | Kd [1] | binding result [2] | binding result [3] | further results
B1 | 21.5 µM | no binding | no binding | 
B2 |  |  |  | binding result [1]: binds
B3 |  |  |  | binding result [4]: no binding; binding result [5]: binds
B4 | 0.31 µM | no binding | no binding | binding result [6]: binds
B5 |  |  |  | binding result [7]: binds
B6 |  |  |  | binding result [8]: binds
